The target in the assay is T1, T862A HER2 receptor (Homo sapiens, UniProt P04626, T862A).
T1 construct: expressed in transfected cells; host or cells: HER2 reporter cells (clone #1)
Kind of assay: HER2 reporter cells transfected with linear expression cassette of T862A HER2, all-in-one method. It is filed as cell-based. The source says:
T862A corresponds to a missense mutation of HER2, which changes Threonine (T) into Alanine (A) at amino acid position of 862. In order to functionally characterize this mutation, PCR-mediated overlapping extension was employed to construct a linear expression cassette of HER2 carrying this mutation. The linear expression cassette of mutant HER2 DNA was transfected into the reporter cells followed by treatment with NRG1 and its inhibitors using the “all-in-one” method. The luciferase reporter activity was measured 24 hours post-transfection.

For “NRG1: neuregulin-1, HER3 receptor ligand”, the “response of mutant HER2 reporter activity to ligand” value is “dose-dependent manner”.

For the origin of these results see patent US11319601B2, “Cell based assay” (Medical Diagnostic Laboratories, L.L.C., priority 2017, dated 2022).
